The record followed here is patent US20190062442A1 (AstraZeneca / MedImmune, published 2019).

The target in test [1] is T1, FLAG-tagged Cynomolgus PrP^c_N1 (cynomolgus monkey, UniProt P67992 23-111).
T1 sequence: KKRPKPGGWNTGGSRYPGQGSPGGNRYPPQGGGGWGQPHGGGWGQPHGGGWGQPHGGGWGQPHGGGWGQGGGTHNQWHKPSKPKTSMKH
Kind of test: direct HTRF binding assay.

Test [2] addresses T2, Human PrP^c_N1_Flag His protein (human, UniProt P04156 23-111).
T2 sequence: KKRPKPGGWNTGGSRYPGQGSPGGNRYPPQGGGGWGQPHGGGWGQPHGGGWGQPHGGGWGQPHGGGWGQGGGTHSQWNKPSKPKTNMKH

Test [3] has as its target T3, FLAG-tagged human PrP^c_N1 (recombinant N-terminal fragment of cellular prion protein, 23-111 amino-acids) (human, UniProt P04156 23-111).
T3 sequence: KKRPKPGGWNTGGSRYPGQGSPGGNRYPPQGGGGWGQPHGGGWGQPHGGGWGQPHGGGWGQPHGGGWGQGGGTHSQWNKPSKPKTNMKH

The target in test [4] is full length cynomolgus PrP^c present on the cynomolgus CynoMK-1 cell line (cynomolgus monkey, UniProt P67992 23-230). Kind of test: flow cytometry, antibody at 5 µg/ml.

B1: PrP^c-O0059 Hu IgG1 (antibody, V domains shown)
VH: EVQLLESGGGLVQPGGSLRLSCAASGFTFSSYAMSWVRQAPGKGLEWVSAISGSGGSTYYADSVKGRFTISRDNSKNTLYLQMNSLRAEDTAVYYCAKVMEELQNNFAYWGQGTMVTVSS
VL: QSVLTQPPSASGTPGQRVTISCSGERSDIGINYVSWYQQLPGTAPKLLIYTDDRRPPGVPDRFSASKSGTSASLAISGLRSEDEADYYCEAWHDVLGHPVFGGGTKLTVL
For the molecule B1, the binding result in test [1] was “binds”. In test [2], the Kd turned out to be 23.5 pM, the koff stood at 1.33e-05 s⁻¹ and the kon is 564000 M⁻¹ s⁻¹. Besides, the half-maximal inhibitory concentration (IC50) in test [3] is 225 pM. In addition, the binding result in test [4] is “binds”.
